According to US20230265151A1, “GIP/GLP1 CO-AGONIST COMPOUNDS” (priority 2020, published 2023):
Where a chain is given by its changes, count along the chain named. *1 amine or outer side, *2 acyl side, *3 side chain or, on linkers, in order; H or OH if unused. Where no end group is shown, it is not given here. Side-chain parts run from the residue outwards. [ ]: non-standard residue; d: D form. The star is where a group is joined. Decanoyl(10-(4-HOOC-PhO)) = O=C(O)c1ccc(OCCCCCCCCCC(=O)*)cc1; αMePhe(2-F) = C[C@](N)(Cc1ccccc1F)C(=O)O; γGlu = O=C(O)[C@H](CCC(=O)[*:2])N[*:1]; C14 diacid = O=C(O)CCCCCCCCCCCCC(=O)*; αMeY = C[C@](N)(Cc1ccc(O)cc1)C(=O)O; αMeL = CC(C)C[C@](C)(N)C(=O)O; Orn = NCCC[C@H](N)C(=O)O; AEEA = NCCOCCOCC(=O)O; Aib = CC(C)(N)C(=O)O

T1: human GIP receptor (human, UniProt P48546 22-466)
T1 sequence (looked up): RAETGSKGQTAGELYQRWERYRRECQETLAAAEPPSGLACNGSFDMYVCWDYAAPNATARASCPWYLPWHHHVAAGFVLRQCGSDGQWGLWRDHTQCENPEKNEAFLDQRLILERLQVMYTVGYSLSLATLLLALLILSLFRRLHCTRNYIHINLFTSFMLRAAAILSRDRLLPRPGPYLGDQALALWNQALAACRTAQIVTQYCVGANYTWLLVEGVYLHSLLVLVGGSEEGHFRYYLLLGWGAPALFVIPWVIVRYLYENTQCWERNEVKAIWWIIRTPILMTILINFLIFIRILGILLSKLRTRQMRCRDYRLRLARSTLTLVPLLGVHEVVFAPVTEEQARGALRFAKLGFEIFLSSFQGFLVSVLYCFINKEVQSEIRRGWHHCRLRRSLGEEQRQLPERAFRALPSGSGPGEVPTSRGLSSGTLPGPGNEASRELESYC

B1: Example 390 (peptide)
peptide: Y[Aib]EGT[αMePhe(2-F)]TSDV[Aib]I[αMeL]LD[Orn]QAQ[Aib]EFIK([AEEA-AEEA-γGlu-C14 diacid])[αMeY]LIK([AEEA-AEEA-γGlu-C14 diacid])GGPSSGAPPPS-NH2
modifications: N-terminus assumed
SMILES: CC[C@H](C)[C@H](NC(=O)[C@H](CC(C)C)NC(=O)[C@](C)(Cc1ccc(O)cc1)NC(=O)[C@H](CCCCNC(=O)COCCOCCNC(=O)COCCOCCNC(=O)CC[C@H](NC(=O)CCCCCCCCCCCCC(=O)O)C(=O)O)NC(=O)[C@@H](NC(=O)[C@H](Cc1ccccc1)NC(=O)[C@H](CCC(=O)O)NC(=O)C(C)(C)NC(=O)[C@H](CCC(N)=O)NC(=O)[C@H](C)NC(=O)[C@H](CCC(N)=O)NC(=O)[C@H](CCCN)NC(=O)[C@H](CC(=O)O)NC(=O)[C@H](CC(C)C)NC(=O)[C@](C)(CC(C)C)NC(=O)[C@@H](NC(=O)C(C)(C)NC(=O)[C@@H](NC(=O)[C@H](CC(=O)O)NC(=O)[C@H](CO)NC(=O)[C@@H](NC(=O)[C@](C)(Cc1ccccc1F)NC(=O)[C@@H](NC(=O)CNC(=O)[C@H](CCC(=O)O)NC(=O)C(C)(C)NC(=O)[C@@H](N)Cc1ccc(O)cc1)[C@@H](C)O)[C@@H](C)O)C(C)C)[C@@H](C)CC)[C@@H](C)CC)C(=O)N[C@@H](CCCCNC(=O)COCCOCCNC(=O)COCCOCCNC(=O)CC[C@H](NC(=O)CCCCCCCCCCCCC(=O)O)C(=O)O)C(=O)NCC(=O)NCC(=O)N1CCC[C@H]1C(=O)N[C@@H](CO)C(=O)N[C@@H](CO)C(=O)NCC(=O)N[C@@H](C)C(=O)N1CCC[C@H]1C(=O)N1CCC[C@H]1C(=O)N1CCC[C@H]1C(=O)N[C@@H](CO)C(N)=O
B2: Example 391 (peptide)
peptide: YXEGTXTSDXXIXLDXQAQXXFIKXLIKGGPSSGAPPPS
modifications: Y-Aib-EGT-αMeF(2F)-TSD-4Pal-Aib-I-αMeL-LD-Orn-QAQ-Aib-Orn-FIK((2-[2-(2-Amino-ethoxy)-ethoxy]-acetyl)2-(γ-Glu)-CO-(CH2)12-CO2H)-αMeY-LIK((2-[2-(2-Amino-ethoxy)-ethoxy]-acetyl)2-(γ-Glu)-CO-(CH2)12-CO2H)GGPSSGAPPPS-NH2
B3: Example 401 (peptide)
peptide: B2 peptide with X10Y
modifications: Y-Aib-EGT-αMeF(2F)-TSDY-Aib-I-αMeL-LD-Orn-QAQ-Aib-Orn-FIK((2-[2-(2-Amino-ethoxy)-ethoxy]-acetyl)2-(γ-Glu)-CO-(CH2)12-CO2H)-αMeY-LIK((2-[2-(2-Amino-ethoxy)-ethoxy]-acetyl)2-(γ-Glu)-CO-(CH2)12-CO2H)GGPSSGAPPPS-NH2
B4: Example 402 (peptide)
peptide: B2 peptide with X10Y, X21E
modifications: Y-Aib-EGT-αMeF(2F)-TSDY-Aib-I-αMeL-LD-Orn-QAQ-Aib-EFIK((2-[2-(2-Amino-ethoxy)-ethoxy]-acetyl)2-(γ-Glu)-(10-(4-carboxyphenoxy)decanoyl))-αMeY-LIK((2-[2-(2-Amino-ethoxy)-ethoxy]-acetyl)2-(γ-Glu)-(10-(4-carboxyphenoxy)decanoyl))GGPSSGAPPPS-NH2
B5: Example 412 (peptide)
peptide: B2 peptide with X10Y, X21E
modifications: Y-Aib-EGT-αMeF(2F)-TSDY-Aib-I-αMeL-LD-Orn-QAQ-Aib-EFIK((2-[2-(2-Amino-ethoxy)-ethoxy]-acetyl)2-(γ-Glu)-CO-(CH2)12-CO2H)-αMeY-LIK((2-[2-(2-Amino-ethoxy)-ethoxy]-acetyl)2-(γ-Glu)-CO-(CH2)12-CO2H)GGPSSGAPPPS-NH2
B6: Example 440 (peptide)
peptide: B2 peptide
modifications: Y-Aib-EGT-αMeF(2F)-TSD-4Pal-Aib-I-αMeL-LD-Orn-QAQ-Aib-Orn-FIK((2-[2-(2-Amino-ethoxy)-ethoxy]-acetyl)2-(γ-Glu)-(10-(4-carboxyphenoxy)decanoyl))-αMeY-LIK((2-[2-(2-Amino-ethoxy)-ethoxy]-acetyl)2-(γ-Glu)-(10-(4-carboxyphenoxy)decanoyl))GGPSSGAPPPS-NH2
B7: Example 441 (peptide)
peptide: B2 peptide with I12G
modifications: Y-Aib-EGT-αMeF(2F)-TSD-4Pal-Aib-G-αMeL-LD-Orn-QAQ-Aib-Orn-FIK((2-[2-(2-Amino-ethoxy)-ethoxy]-acetyl)2-(γ-Glu)-CO-(CH2)12-CO2H)-αMeY-LIK((2-[2-(2-Amino-ethoxy)-ethoxy]-acetyl)2-(γ-Glu)-CO-(CH2)12-CO2H)GGPSSGAPPPS-NH2
B8: Example 442 (peptide)
peptide: B2 peptide
modifications: Y-Aib-EGT-αMeF(2F)-TSD-4Pal-Aib-I-αMeL-LD-Orn-QAQ-Aib-Orn-FIK(2-[2-(2-Amino-ethoxy)-ethoxy]-acetyl)2-(γ-Glu)-(11-(4-carboxyphenoxy)undecanoyl)-αMeY-LIK((2-[2-(2-Amino-ethoxy)-ethoxy]-acetyl)2-(γ-Glu)-(11-(4-carboxyphenoxy)undecanoyl)GGPSSGAPPPS-NH2)
B9: Example 443 (peptide)
peptide: B2 peptide
modifications: Y-Aib-EGT-αMeF(2F)-TSD-4Pal-Aib-I-αMeL-LD-Orn-QAQ-Aib-Orn-FIK((2-[2-(2-Amino-ethoxy)-ethoxy]-acetyl)2-(γ-Glu)-CO-(CH2)14-CO2)-αMeY-LIK((2-[2-(2-Amino-ethoxy)-ethoxy]-acetyl)2-(γ-Glu)-CO-(CH2)14-CO2)GGPSSGAPPPS-NH2
B10: Example 444 (peptide)
peptide: B2 peptide
modifications: Y-Aib-EGT-αMeF(2F)-TSD-4Pal-Aib-I-αMeL-LD-Orn-QAQ-Aib-4Pal-FIK((2-[2-(2-Amino-ethoxy)-ethoxy]-acetyl)2-(γ-Glu)-CO-(CH2)12-CO2H)-αMeY-LIK((2-[2-(2-Amino-ethoxy)-ethoxy]-acetyl)2-(γ-Glu)-CO-(CH2)12-CO2H)GGPSSGAPPPS-NH2

Legend:
Assay in all cases: cell-based or functional assay
human GIP receptor = target: T1, human GIP receptor
human glucagon receptor = human glucagon receptor (human, UniProt P47871 26-477)
human glucagon receptor, sequence (P47871 26-477): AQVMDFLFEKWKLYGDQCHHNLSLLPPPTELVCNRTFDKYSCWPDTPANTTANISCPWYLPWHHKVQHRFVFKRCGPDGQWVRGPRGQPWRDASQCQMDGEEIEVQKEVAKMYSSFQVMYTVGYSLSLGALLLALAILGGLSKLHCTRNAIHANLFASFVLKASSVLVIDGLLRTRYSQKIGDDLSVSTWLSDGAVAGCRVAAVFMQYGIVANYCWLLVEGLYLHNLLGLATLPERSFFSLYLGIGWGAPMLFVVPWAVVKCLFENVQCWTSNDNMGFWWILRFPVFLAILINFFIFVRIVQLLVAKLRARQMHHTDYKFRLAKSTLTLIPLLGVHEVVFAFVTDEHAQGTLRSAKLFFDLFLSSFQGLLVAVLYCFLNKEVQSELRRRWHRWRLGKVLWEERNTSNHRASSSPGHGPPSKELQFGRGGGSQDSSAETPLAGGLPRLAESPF

human GLP-1 receptor = human GLP-1 receptor (human, UniProt P43220 24-463)

Binder	cAMP EC50 (1.0% HSA) (human GIP receptor)	cAMP Emax (1.0% HSA) (human GIP receptor)	cAMP EC50 (1.0% HSA) (human glucagon receptor)	cAMP EC50 (1.0% HSA) (human GLP-1 receptor)	cAMP Emax (1.0% HSA) (human GLP-1 receptor)
B1	3.85 nM	89.3%	> 9950 nM	24.3 nM	94.6%
B2	0.266 nM		> 9950 nM	2.62 nM	
B3	0.434 nM	83%	> 9950 nM	5.39 nM	107%
B4	1.11 nM	84.5%	> 9950 nM	13.5 nM	
B5	1.57 nM	87.5%	> 9950 nM	18.3 nM	
B6	0.209 nM		> 10100 nM	2.74 nM	
B7	1.38 nM	83.8%	> 9950 nM	5.75 nM	111%
B8	0.687 nM		> 9950 nM	7.63 nM	
B9	12.2 nM		> 9950 nM	133 nM	
B10	0.57 nM		> 9950 nM	7.51 nM	
Y[Aib]EGT[αMePhe(2-F)]TSDV[Aib]I[αMeL]LD[Orn]QAQ[Aib]EFIK([AEEA-AEEA-γGlu-Decanoyl(10-(4-HOOC-PhO))])[αMeY]LIK([AEEA-AEEA-γGlu-Decanoyl(10-(4-HOOC-PhO))])GGPSSGAPPPS-NH2 [Example 446]	5.14 nM	97%	> 9950 nM	33.5 nM	105%
Y[Aib]EGT[αMePhe(2-F)]TSDV[Aib]I[αMeL]LD[Orn]QAQ[Aib][Orn]FIK([AEEA-AEEA-γGlu-Decanoyl(10-(4-HOOC-PhO))])[αMeY]LIK([AEEA-AEEA-γGlu-Decanoyl(10-(4-HOOC-PhO))])GGPSSGAPPPS-NH2 [Example 447]	1.46 nM		> 9950 nM	7.85 nM	98.4%
